The chains are these.
B2: MBPCC1: maltose-binding protein fusion of the human TRPA1 C-terminal coiled-coil CC1 (amino acids A1036-T1078) (domain or fragment, UniProt O75762 1036-1078, looked up)
chain: ADKSLEMEILKQKYRLKDLTFLLEKQHELIKLIIQKMEIISET
notes: human TRPA1 C-terminal coiled-coil CC1, amino acids A1036-T1078; source: E. coli BL21(DE3), purified (amylose resin, SEC); also co-expressed with ARD in BL21(DE3), in cleared lysate; not shown: poly-histidine, N-terminal, kept; MBP, N-terminal, kept

Series [1] has as its target B2. The series is described as follows: pull-down; amylose resin co-purification from cleared lysate of bacteria co-expressing ARD and MBPCC1; incubation and 4 washes at 4 C, Buffer A1T, with or without IP6 and/or AITC; anti-His Western blot. The settings on record: partners not purified. A general note: A western blot detects proteins with antibodies after separation by electrophoresis.

Series [2] deals with the molecule itself. As to the kind of experiment: SEC-MALS; MBPCC1 at 15 mg/ml (~300 uM), absence of IP6, Superdex 200 column. (SEC sorts molecules by how far they enter the pores of the column.)
Series [3] deals with the molecule itself. The series is described as follows: SEC-MALS; MBPCC1 diluted to 1 mg/ul (~20 uM) as printed, absence of IP6, Superdex 200 column.

These results are taken from article PMC6386368, “Multimerization of Homo sapiens TRPA1 ion channel cytoplasmic domains” (PLoS ONE, 2019).

The term stoichiometry N denotes the number of molecules, sites or subunits per partner or assembly.

B1: TRPA1 ARD construct (N-terminal ankyrin repeat domains, amino acids 446-639) (domain or fragment, human, UniProt O75762 446-639, looked up)
chain: KKSPLHFAASYGRINTCQRLLQDISDTRLLNEGDLHGMTPLHLAAKNGHDKVVQLLLKKGALFLSDHNGWTALHHASMGGYTQTMKVILDTNLKCTDRLDEDGNTALHFAAREGHAKAVALLLSHNADIVLNKQQASFLHLALHNKRKEVVLTIIRSKRWDECLKIFSHNSPGNKCPITEMIEYLPECMKVLLD
notes: human TRPA1 ankyrin repeat domains with resolvable density in the cryoEM structure, amino acids 446-639; Cloned into pET28b (Nhe I and Sac I) in frame with an N-terminal poly-histidine tag; also called ARDs; N-terminal ARD; source: E. coli BL21(DE3), co-expressed with MBPCC1, in cleared lysate; not shown: poly-histidine, N-terminal, kept
For the molecule B1, the “ARD:CC ratio” value in series [1] was around 0.3. Take B2: the “stoichiometry N” value in series [2] came to 4; in series [3], 3.
